In paper PMC8444450 (The Journal of Biological Chemistry, 2021) one finds Kd data, which are given here for one molecule.

This assay deals with SARS-CoV-2 spike receptor-binding domain (amino acids 333–529), bacteria-expressed and refolded (SARS-CoV-2, parental (WT) RBD, UniProt P0DTC2). Nature of the assay: SPR. As to conditions: both partners purified.

B1: sybody Sb68 (VHH)
VHH: QVQLVESGGGSVQAGGSLRLSCAASGSISSITYLGWFRQAPGKEREGVAALITVNGHTYYADSVKGRFTVSLDNAKNTVYLQMNSLKPEDTALYYCAAAAWGYAWPLHQDDYWYWGQGTQVTVSA
Turning to B1, the Kd (as a rule, the free concentration of one partner at which half of the binding sites on the other are occupied at equilibrium, for simple one-to-one binding) is 6.8 to 62.7 nM.
